Laboratory results published in paper PMC4474532.

B1: human PERK luminal domain (residues 105–403) [human] / itself (parent)
chain: LVIISTLDGRIAALDPENHGKKQWDLDVGSGSLVSSSLSKPEVFGNKMIIPSLDGALFQWDQDRESMETVPFTVESLLESSYKFGDDVVLVGGKSLTTYGLSAYSGKVRYICSALGCRQWDSDEMEQEEDILLLQRTQKTVRAVGPRSGNEKWNFSVGHFELRYIPDMETRAGFIESTFKPNENTEESKIISDVEEQEAAIMDIVIKVSVADWKVMAFSKKGGHLEWEYQFCTPIASAWLLKDGKVIPISLFDDTSYTSNDDVLEDEEDIVEAARGATENSVYLGMYRGQLYLQSSVRI

Variants of: B1
Experiment: sedimentation velocity AUC
Conditions: with itself

Row | screen value (parent: 0) | screen value (parent: 0.73) | Variant
1 | -57% | 0.32 | LVIISTLDGRIAALDPENHGKKQWDLDVGSGSLVSSSLSKPEVFGNKMIIPSLDGALFQWDQDRESMETVPFTVESLLESSYKFGDDVVLVGGKSLTTYGLSAYSGKVRYICSALGCRQWDSDEMEQEEDILLLQRTQKTVRAVGPRSGNEKWNFSVGHFELRYIPDMETRAGFIESTFKPNENTEESKIISDVEEQEAAIMDIVIKVSVADWKVMAFSKKGGHLEWEYQFCTPIASAWLLKDGKVIPISLFDDTSYTSNDDVLEDEEDIVEAARGATENSVYLGMYRGQNYLQSSVRI [chain 1 L291N]
2 | -52% | 0.35 | LVIISTLDGRIAALDPENHGKKQWDLDVGSGSLVSSSLSKPEVFGNKMIIPSLDGALFQWDQDRESMETVPFTVESLLESSYKFGDDVVLVGGKSLTTYGLSAYSGKVRYICSALGCRQWDSDEMEQEEDILLLQRTQKTVRAVGPRSGNEKWNFSVGHFELRYIPDMETRAGFIESTFKPNENTEESKIISDVEEQEAAIMDIVIKVSVADWKVMAFSKKGGHLEWEYQFCTPIASAWLLKDGKVIPISLFDDTSYTSNDDVLEDEEDIVEANRGATENSVYLGMYRGQLYLQSSVRI [chain 1 A274N]
3 | -58% | 0.31 | LVIISTLDGRIAALDPENHGKKQWDLDVGSGSLVSSSLSKPEVFGNKMIIPSLDGALFQWDQDRESMETVPFTVESLLESSYKFGDDVVLVGGKSLTTYGLSAYSGKVRYICSALGCRQWDSDEMEQEEDILLLQRTQKTVRAVGPRSGNEKWNFSVGHFELRYIPDMETRAGFIESTFKPNENTEESKIISDVEEQEAAIMDIVIKVSVADWKVMAFSKKGGHLEWEYQFCTPIASAWLLKDGKVIPISLFDDTSYTSNDDVLEDEEDIVEAARGATENSVYNGMYRGQLYLQSSVRI [chain 1 L284N]
4 | -61% | 0.28 | LVIISTLDGRIAALDPENHGKKQWDLDVGSGSLVSSSLSKPEVFGNKMIIPSLDGALFQWDQDRESMETVPFTVESLLESSYKFGDDVVLVGGKSLTTYGLSAYSGKVRYICSALGCRQWDSDEMEQEEDILLLQRTQKTVRAVGPRSGNEKWNFSVGHFELRYIPDMETRAGFIESTFKPNENTEESKIISDVEEQEAAIMDIVIKVSVADWKVMAFSKKGGHLEWEYQFCTPIASAWLLKDGKVIPISLFDDTSYTSNDDVLEDEEDIVEAARGATENSVYLGMYRGQLYNQSSVRI [chain 1 L293N]
